Source: the supplement of paper PMC11246515
± gives the standard deviation of the averaged measurements.

Assay: total protein half-life in vivo (active degradation + dilution); higher = more stable protein
[1] = E. coli NCM3722 delta-clpP delta-lon delta-hslV, growth: N-lim chemostat, doubling time 6 h
[2] = E. coli NCM3722 delta-clpP, growth: N-lim chemostat, doubling time 6 h
[3] = E. coli NCM3722 delta-hslV, growth: N-lim chemostat, doubling time 6 h
[4] = E. coli NCM3722 delta-lon, growth: N-lim chemostat, doubling time 6 h
[5] = E. coli NCM3722 delta-smpB, growth: N-lim chemostat, doubling time 6 h
[6] = wild type E. coli NCM3722, growth: C-lim chemostat, doubling time 3 h
[7] = wild type E. coli NCM3722, growth: C-lim chemostat, doubling time 6 h
[8] = wild type E. coli NCM3722, growth: C-lim chemostat, doubling time 12 h
[9] = wild type E. coli NCM3722, growth: N-lim chemostat, doubling time 6 h
[10] = wild type E. coli NCM3722, growth: N-lim chemostat, doubling time 12 h
[11] = wild type E. coli NCM3722, growth: P-lim chemostat, doubling time 6 h
[12] = wild type E. coli NCM3722, growth: P-lim chemostat, doubling time 12 h

In the case of “MSLISMHGAWLSFSDAPLLDNAELHIEDNERVCLVGRNGAGKSTLMKILNREQGLDDGRIIYEQDLIVARLQQDPPRNVEGSVYDFVAEGIEEQAEYLKRYHDISRLVMNDPSEKNLNELAKVQEQLDHHNLWQLENRINEVLAQLGLDPNVALSSLSGGWLRKAALGRALVSNPRVLLLDEPTNHLDIETIDWLEGFLKTFNGTIIFISHDRSFIRNMATRIVDLDRGKLVTYPGNYDQYLLEKEEALRVEELQNAEFDRKLAQEEVWIRQGIKARRTRNEGRVRALKAMRRERGERREVMGTAKMQVEEASRSGKIVFEMEDVCYQVNGKQLVKDFSAQVLRGDKIALIGPNGCGKTTLLKLMLGQLQADSGRIHVGTKLEVAYFDQHRAELDPDKTVMDNLAEGKQEVMVNGKPRHVLGYLQDFLFHPKRAMTPVRALSGGERNRLLLARLFLKPSNLLILDEPTNDLDVETLELLEELIDSYQGTVLLVSHDRQFVDNTVTECWIFEGGGKIGRYVGGYHDARGQQEQYVALKQPAVKKTEEAAAAKAETVKRSSSKLSYKLQRELEQLPQLLEDLEAKLEALQTQVADASFFSQPHEQTQKVLADMAAAEQELEQAFERWEYLEALKNGG”, the “total protein half-life in vivo” value [1] is reported as 4.79 ± 0.63 h, the “total protein half-life in vivo” value [2] is reported as 5.1 ± 0.79 h and the “total protein half-life in vivo” value [3] is reported as 4.73 ± 0.16 h. For the same sequence, the “total protein half-life in vivo” value [4] was 4.8 ± 0.17 h, the “total protein half-life in vivo” value [5] was 4.38 ± 0.62 h and the “total protein half-life in vivo” value [6] was 3.41 ± 0.18 h. The “total protein half-life in vivo” value [7] was 5.82 ± 0.35 h, the “total protein half-life in vivo” value [8] was 10.4 ± 1.5 h and the “total protein half-life in vivo” value [9] was 4.37 ± 0.087 h. For the same sequence, the “total protein half-life in vivo” value [10] was 7.15 ± 0.13 h, the “total protein half-life in vivo” value [11] was 5.42 ± 0.33 h and the “total protein half-life in vivo” value [12] was 9.51 ± 0.35 h.
For “MSLKEKTQSLFANAFGYPATHTIQAPGRVNLIGEHTDYNDGFVLPCAIDYQTVISCAPRDDRKVRVMAADYENQLDEFSLDAPIVAHENYQWANYVRGVVKHLQLRNNSFGGVDMVISGNVPQGAGLSSSASLEVAVGTVLQQLYHLPLDGAQIALNGQEAENQFVGCNCGIMDQLISALGKKDHALLIDCRSLGTKAVSMPKGVAVVIINSNFKRTLVGSEYNTRREQCETGARFFQQPALRDVTIEEFNAVAHELDPIVAKRVRHILTENARTVEAASALEQGDLKRMGELMAESHASMRDDFEITVPQIDTLVEIVKAVIGDKGGVRMTGGGFGGCIVALIPEELVPAVQQAVAEQYEAKTGIKETFYVCKPSQGAGQC [P0A6T3]”, the “total protein half-life in vivo” value [1] was 5.59 ± 2 h, the “total protein half-life in vivo” value [2] was 6.35 h and the “total protein half-life in vivo” value [3] was 5.09 ± 1.2 h. The “total protein half-life in vivo” value [4] was 5.29 ± 0.75 h, the “total protein half-life in vivo” value [5] was 4.573 ± 0.04 h and the “total protein half-life in vivo” value [6] was 3.22 ± 0.53 h. The “total protein half-life in vivo” value [7] was 5.71 ± 0.33 h, the “total protein half-life in vivo” value [8] was 12.7 ± 2 h and the “total protein half-life in vivo” value [9] was 4.53 ± 0.13 h. The “total protein half-life in vivo” value [10] was 7.14 ± 0.81 h, the “total protein half-life in vivo” value [11] was 6.11 ± 0.1 h and the “total protein half-life in vivo” value [12] was 11.9 ± 0.71 h.
With “MSLLNVPAGKDLPEDIYVVIEIPANADPIKYEIDKESGALFVDRFMSTAMFYPCNYGYINHTLSLDGDPVDVLVPTPYPLQPGSVIRCRPVGVLKMTDEAGEDAKLVAVPHSKLSKEYDHIKDVNDLPELLKAQIAHFFEHYKDLEKGKWVKVEGWENAEAAKAEIVASFERAKNK [P0A7A9]” the “total protein half-life in vivo” value [1] was 5.91 ± 0.78 h, the “total protein half-life in vivo” value [2] was 4.83 ± 0.22 h and the “total protein half-life in vivo” value [3] was 5.09 ± 0.49 h. The “total protein half-life in vivo” value [4] was 6.36 ± 0.52 h, the “total protein half-life in vivo” value [5] was 5.358 ± 0.02 h and the “total protein half-life in vivo” value [6] was 3.48 ± 0.71 h. For the same sequence, the “total protein half-life in vivo” value [7] was 5.73 ± 0.47 h, the “total protein half-life in vivo” value [8] was 10.6 ± 0.65 h and the “total protein half-life in vivo” value [9] was 4.34 ± 0.4 h. The “total protein half-life in vivo” value [10] was 8.63 ± 0.47 h, the “total protein half-life in vivo” value [11] was 5.65 ± 1.4 h and the “total protein half-life in vivo” value [12] was 14.4 ± 1.1 h.
In the case of “MSLNMFWFLPTHGDGHYLGTEEGSRPVDHGYLQQIAQAADRLGYTGVLIPTGRSCEDAWLVAASMIPVTQRLKFLVALRPSVTSPTVAARQAATLDRLSNGRALFNLVTGSDPQELAGDGVFLDHSERYEASAEFTQVWRRLLQRETVDFNGKHIHVRGAKLLFPAIQQPYPPLYFGGSSDVAQELAAEQVDLYLTWGEPPELVKEKIEQVRAKAAAHGRKIRFGIRLHVIVRETNDEAWQAAERLISHLDDETIAKAQAAFARTDSVGQQRMAALHNGKRDNLEISPNLWAGVGLVRGGAGTALVGDGPTVAARINEYAALGIDSFVLSGYPHLEEAYRVGELLFPLLDVAIPEIPQPQPLNPQGEAVANDFIPRKVAQS”, the “total protein half-life in vivo” value [1] is reported as 5.43 ± 0.79 h.
With “MSLPFLRTLQGDRFFQLLILVGIGLSFFVPFAPKSWPAAIDWHTIITLSGLMLLTKGVELSGYFDVLGRKMVRRFATERRLAMFMVLAAALLSTFLTNDVALFIVVPLTITLKRLCEIPVNRLIIFEALAVNAGSLLTPIGNPQNILIWGRSGLSFAGFIAQMAPLAGAMMLTLLLLCWCCFPGKAMQYHTGVQTPEWKPRLVWSCLGLYIVFLTALEFKQELWGLVIVAAGFALLARRVVLSVDWTLLLVFMAMFIDVHLLTQLPALQGVLGNVSHLSEPGLWLTAIGLSQVISNVPSTILLLNYVPPSLLLVWAVNVGGFGLLPGSLANLIALRMANDRRIWWRFHLYSIPMLLWAALVGYVLLVILPAN” the “total protein half-life in vivo” value [10] was 9.39 h.
With “MSLSRRQFIQASGIALCAGAVPLKASAAGQQQPLPVPPLLESRRGQPLFMTVQRAHWSFTPGTRASVWGINGRYLGPTIRVWKGDDVKLIYSNRLTENVSMTVAGLQVPGPLMGGPARMMSPNADWAPVLPIRQNAATLWYHANTPNRTAQQVYNGLAGMWLVEDEVSKSLPIPNHYGVDDFPVIIQDKRLDNFGTPEYNEPGSGGFVGDTLLVNGVQSPYVEVSRGWVRLRLLNASNSRRYQLQMNDGRPLHVISGDQGFLPAPVSVKQLSLAPGERREILVDMSNGDEVSITCGEAASIVDRIRGFFEPSSILVSTLVLTLRPTGLLPLVTDSLPMRLLPTEIMAGSPIRSRDISLGDDPGINGQLWDVNRIDVTAQQGTWERWTVRADEPQAFHIEGVMFQIRNVNGAMPFPEDRGWKDTVWVDGQVELLVYFGQPSWAHFPFYFNSQTLEMADRGSIGQLLVNPVP” the “total protein half-life in vivo” value [1] was 6.39 ± 0.28 h, the “total protein half-life in vivo” value [2] was 6.3 ± 0.19 h and the “total protein half-life in vivo” value [3] was 6.17 ± 0.57 h. For the same sequence, the “total protein half-life in vivo” value [4] was 6.21 ± 0.34 h, the “total protein half-life in vivo” value [5] was 6.12 ± 0.66 h and the “total protein half-life in vivo” value [6] was 3.28 ± 0.037 h. For the same sequence, the “total protein half-life in vivo” value [7] was 6.047 ± 0.037 h, the “total protein half-life in vivo” value [8] was 11.19 ± 0.06 h and the “total protein half-life in vivo” value [9] was 6.13 ± 0.41 h. The “total protein half-life in vivo” value [10] was 13.5 ± 0.45 h, the “total protein half-life in vivo” value [11] was 5.88 ± 0.35 h and the “total protein half-life in vivo” value [12] was 12.5 ± 0.35 h.
With “MSMIKSYAAKEAGGELEVYEYDPGELRPQDVEVQVDYCGICHSDLSMIDNEWGFSQYPLVAGHEVIGRVVALGSAAQDKGLQVGQRVGIGWTARSCGHCDACISGNQINCEQGAVPTIMNRGGFAEKLRADWQWVIPLPENIDIESAGPLLCGGITVFKPLLMHHITATSRVGVIGIGGLGHIAIKLLHAMGCEVTAFSSNPAKEQEVLAMGADKVVNSRDPQALKALAGQFDLIINTVNVSLDWQPYFEALTYGGNFHTVGAVLTPLSVPAFTLIAGDRSVSGSATGTPYELRKLMRFAARSKVAPTTELFPMSKINDAIQHVRDGKARYRVVLKADF” the “total protein half-life in vivo” value [1] was 5.793 ± 0.025 h, the “total protein half-life in vivo” value [2] was 5.68 ± 0.17 h and the “total protein half-life in vivo” value [4] was 5.65 ± 0.11 h. The “total protein half-life in vivo” value [5] was 5.22 ± 1.4 h, the “total protein half-life in vivo” value [6] was 2.17 ± 0.36 h and the “total protein half-life in vivo” value [7] was 6.43 ± 1.3 h. The “total protein half-life in vivo” value [8] was 11 ± 1.4 h, the “total protein half-life in vivo” value [9] was 5.42 ± 0.12 h and the “total protein half-life in vivo” value [10] was 10.8 ± 0.24 h. The “total protein half-life in vivo” value [11] was 5.84 ± 0.26 h and the “total protein half-life in vivo” value [12] was 11.9 ± 0.73 h.
With “MSMSTSTEVIAHHWAFAIFLIVAIGLCCLMLVGGWFLGGRARARSKNVPFESGIDSVGSARLRLSAKFYLVAMFFVIFDVEALYLFAWSTSIRESGWVGFVEAAIFIFVLLAGLVYLVRIGALDWTPARSRRERMNPETNSIANRQR [P0AFC3]” the “total protein half-life in vivo” value [1] was 7.01 ± 0.28 h, the “total protein half-life in vivo” value [3] was 6.15 ± 1.1 h and the “total protein half-life in vivo” value [5] was 6.317 ± 0.023 h. For the same sequence, the “total protein half-life in vivo” value [6] was 3.72 ± 0.32 h, the “total protein half-life in vivo” value [8] was 13 ± 0.5 h and the “total protein half-life in vivo” value [9] was 6.22 ± 0.18 h. The “total protein half-life in vivo” value [11] was 6.293 ± 0.024 h and the “total protein half-life in vivo” value [12] was 14.3 ± 2.1 h.
